Assay: yeast display, Sf9 membrane polyspecificity reagent, FACS + sequencing; frameworks hold sequencing errors
In short: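 Sorting gates, low and high (top ~1%), were placed on anti-HA fluorescence to track expression and on streptavidin fluorescence to track reagent binding. A clone's polyreactivity label is taken from the gate it came out of. The reagent was 10% biotinylated, detergent-solubilized Sf9 membrane, applied for 1 hour at 4 °C to galactose-induced yeast display cells.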

Sequence: QVQLVESGGGLVQAGGSLRLTCAASGRILVLNAMGWYRQAPGKERELVADITSGGSTYFADSVKGRFTISRDNAKNTVYLQMNSLKPEDTAVYYCAADWNTYPDYQQSYFVSYEYNYWGQGTQVTVSS
- polyreactivity (PSR sort gate): low polyreactivity

Sequence: QDQLVESGGGLVQAGGSLRLSCAASGSTFRRYTMGWYRQAPGKERELVAVITKSGGSTYYADSVKGRFTISRDNAKNTVYLQMNRLKPEDTAVYYCAAGVAWRFYSWLGHFNGFDYWGQGTQVTVSS
- polyreactivity (PSR sort gate): high polyreactivity

Sequence: QVQLVESGGGLVQAGGSLRLSCAASGSTFRSNVMGWYRQAPGKERELVAAITSSGGSTYYADSVKGRFTISRDNAKNTVYLQMNSLKPEDTAVYYCAVDYYYGFDWGQGTQVTVSS
- polyreactivity (PSR sort gate): low polyreactivity

Sequence: QVQLVESGGGLVQAGGSLRLSCAASGRIFGWYAMGGYRQAPGKERELVAAITSGGRTKYADSVKGRLTISRDNAKNTVYLQMNSLKPEDTAVYYCAARPQISSFDGLYYWGQGTQVTVSS
- polyreactivity (PSR sort gate): high polyreactivity

Sequence: QVQLVESGGGLVQAGGSLSLSCAASGRITCGYAMGWYRQAPGKERELVAVINFNGGRTYYADSVKGRFTISRDNAKNTVYLQMNSLKPEDTAVYYCAADSGYEYDYWGQGTQVTVSS
- polyreactivity (PSR sort gate): low polyreactivity

Sequence: EVQLVESGGGLVQAGGSLRLSCAASGRTIGFNGMAWYRQAPGKERELFAAITRSGGNTYADSVKGRFTISRDNAKNTVYLQMNSLNPEDSAVYYCATTYVGETLTGPGDYWGQGTQVTVSS
- polyreactivity (PSR sort gate): low polyreactivity

Sequence: QVQLVESGGGLVQAGGSLRLSCAASGSIFARYVMGWYRQAPGKERELVAAISRGGRTKYADSVKGRFTISRDNAKNTVYLQMNSLKPEDTAVYYCAASGSQPDDYWGQGTQVTVSS
- polyreactivity (PSR sort gate): high polyreactivity

Sequence: QVQLVESGGGLVQAGGSLRLSCAASGRTFGSKALAWYRPAPGKERELVAAITGGGSTYYADSVKGRFTISRDNAKNTVYLQMNSLKPEDTAVYYCAARGTSGWYRYGYWGQGTQVTVSS
- polyreactivity (PSR sort gate): high polyreactivity

Sequence: QVQLVESGGGLVQAGGSLRLSCAASGRTFFHNPMGWYRQAPGKERELVAAISSGGGTYADSVKGRFTISRDNAKNTVYLQINSLKPEDTAVYYCAATLYNTEDDYWGQGTQVTVSS
- polyreactivity (PSR sort gate): low polyreactivity

Sequence: QVQHVESGGGLVQAGGSLRLSCAASGSTISNNAMGWYRQAPGKERELVAGINSSGGRTYYADSVKGRFTISRDNAKNTVYLQMNSLKPEDTAVYYCNADNFRRYGYWGQGTQVTVSS
- polyreactivity (PSR sort gate): high polyreactivity

Sequence: QVQLVESGGGLVQAGGSLRLSCAASGRIFTDYTMGWYRHAPGKERELDAAISKGGSGTYYADSVKGRFTISRDNAKNTVYLQMNSLKPEDTAVYYCNKVISTGEYDYWGQGTQVTVSS
- polyreactivity (PSR sort gate): low polyreactivity

Sequence: QVQLVESGGGLVQAGGSLRLSCDASGRIFLTNAMAWYRQAPGKERELVAAITSGVSTYYADSVKGRFTISRDNAKNTVYLQMNSLKPEDTAVYYCNADTDRYWPYEYDYWGQGTQVTVSS
- polyreactivity (PSR sort gate): low polyreactivity

Sequence: QVQLVESGGGLVQAGGSLRLSCAASGSIFVVNAMGWYRQAPGKERELVAAIRLSGGSTYYADSVKGRFTISRDNAKNTVYLQMNSLKPEDTAVYDCAARYRELRTEYYYWGQGTQVTVSS
- polyreactivity (PSR sort gate): high polyreactivity

Sequence: QVQLQESGGGQVQAGGSLRLSSAASGYIFAYNYMGWYRKAPGKERELVAAIVHGSTTNYADSVKGRFTISRDNAKNTVYLHMNNLKPEDTAVYYCAVDAERYYLHSYWGQGTQVTVSS
- polyreactivity (PSR sort gate): high polyreactivity

Sequence: QVQLVESGGGLVQAGGSLRLSCAASGSTFTRNAKGWYRQAPGKERELVAAITSSGSRTYYADSVKGRFTISRDNAKNTVYLQMNRLKPEDTAVYYCAGLGDTRYVAMDHWGQGTQVTVSS
- polyreactivity (PSR sort gate): high polyreactivity

Sequence: QVQLVESGGGLVQARGSLRLSCAASGSIFYGYALGWYRQAPGKERELVAAITSSGTRTYYADSVKGRFTISRDNAKNTVYLQMNSLKPEDTAVYYCAADGPGYQYDFWGQGTQVTVSS
- polyreactivity (PSR sort gate): high polyreactivity

Sequence: QVQLQESGGGLVQAGGTLRLSCAASGSFSADEDMGWYRQAQGKEREFVAGISVGGNTNYADSVKGRFTISRENAKNTVYLELNSLKPEDTAVYYCAVLQDVYDALDYWAQGTQVTVSS
- polyreactivity (PSR sort gate): high polyreactivity

Sequence: QVQLVESGGGLGQAGGRLRLSCAASGSIFRRNAMGWYRQAPGKERELVAGISGGGSTYYADSVKGRFTISRDNAKNTVYLQMYSLKPEDTAVYYCATDKHYRWAGFDYWGQGTQVTVSS
- polyreactivity (PSR sort gate): low polyreactivity

Sequence: QVQLVESGGGLVQAGGSLRLSCAASGRIFVLYAMGWYRQAPGKERELVAAINWSGGSTFYADSVKGRFTISRDNAKNTVYLQMNSLKPEDTAVYYCAADPYFWSALRIGQNDYWGQGTQVTVSS
- polyreactivity (PSR sort gate): high polyreactivity

Sequence: QVQLVESGGGLVQAGGSLRLSCAASGSTFDVYAMGWYRQAPGKERELVAAISYIGDNTYYADSVKGRFTISRDNAKNTVYLQMNSLKPEDTAVYYCAAEAEHYSFQDYYVEYDYWGQGTQVTVSS
- polyreactivity (PSR sort gate): high polyreactivity

Sequence: QVQLVESGGGLVQAGGSLRLSCAASGFTFYPYSMGWYRQAPGKERELVAAIRGSGGSTHYADSVKGRFTISRDNAKNTVYLQMNSLKPEDTAVYYCAARIRGYRQYGTYYYWGQGTQVTVSS
- polyreactivity (PSR sort gate): high polyreactivity

Sequence: QVQLVESGGGLVQAGGSLRLSCAASGTFTRNVMGWYRQAPGKERELVAAIDNGSSTNYADSVKGRFTISRDNAKNTVYLQINSQKPEDTAVYYCANERPRSAGSAASIEQQMDYWGQGTQVTVSS
- polyreactivity (PSR sort gate): low polyreactivity

Sequence: QVQLVESGGGLLQAGGSLRLSCAASGYIFQYYAMGWYRQAPGKERELVAAITGGGSTKYADSVKGRFTISRDNAKNTVYLQMNSLKPEDTAVYYCAASLWYRISKYDYWGQGTQVTVSS
- polyreactivity (PSR sort gate): high polyreactivity

Sequence: QVQLVESGGGLVQAGGSLRLSCAASGYIFPYNAMGWYRQAPGKERELVAAISASGGTTYYADSVKGRFTISRDNAKNTVYLQMNSLKPEDTAVYYCAASFAVTSGHHYEYWGQGTQVTVSS
- polyreactivity (PSR sort gate): high polyreactivity

Sequence: QVQLVESGGGLVQAGGSLRLSCAASGSTFVPNAMGWYRQAPGKERELVADITSGGITNYADSVKGRFTISRDNAKNTVYLQMISLNPEDTGVYYCAVLYYILAPGYDYWGQGTLVTVSS
- polyreactivity (PSR sort gate): low polyreactivity

Sequence: QVQLVESVGGLVQAGGSLRLSCDASGYIFKNYAMGWYIQAPGKERELVAAINWSGGNTYYADSVKGRFTISRDNAKNTVYLQMNSLKPEDTAVYYCNAVSSLRSYGYNYCGQGTQVTVSS
- polyreactivity (PSR sort gate): low polyreactivity

Sequence: QVQLVESGGGLFQAGGSLRLSCAASGFIFRYYAMGWYRQAPGKERELVAAITRGGSTYYADSVKGRFTISRDNAKNTVYLQMNSLKPEDTAVYDCAARLYTQYYYWGQCTQVTVSS
- polyreactivity (PSR sort gate): high polyreactivity

Sequence: QVQLVESGGGLVQAGGSLRLSCAASGINFYYYTMGWYRQAPGKERELVAGITRGGRTYYADSVKGRFTISRDNAKNTVYLQMNSLKPEDTAVYYCNADPWWRFDYWGQGTQVTVSS
- polyreactivity (PSR sort gate): low polyreactivity

Sequence: QVQLVESGGGLVQAGGSLRLSCAASGFIFGRYAMGWYRQAPGKEREFVAAITWRGGNTYYADSVKGRFTISRDNAKNTVYLQMNSLKPEDTAVYYCAKKTAGHPWGPIYDYWGQGTQVTVSS
- polyreactivity (PSR sort gate): high polyreactivity

Sequence: QVQLVESGGGLVQAGGSLRLSCAASGNIFPYNAMAWYRQAPGKERELVATISSGGSTYYADSVKGRFTISRDNAKNTVYLQMNSLKPEDTAVYYCAARGRYPYRYGYWGQGTQVTVSS
- polyreactivity (PSR sort gate): high polyreactivity

Sequence: QVQLVESGGGLVQAGGSLRLSCAASGSTFTVYAMGWYRQAPGKEREFVAAITRRGGNTYYADSVKGRFTISRDNAKNTVYLQMNSLKPEDTAVYYCNADSPLNAYYGGRELDYWGQGTQVTVSS
- polyreactivity (PSR sort gate): high polyreactivity

Sequence: QVQLVESGGGLVQAGGSLRLSCAASGFTFDSYAMGWYRQAPGQERELVPAISSSSSTNYADSVKGRFTISRDNAKNTVYLPLNSLKPEDTAVYYCNADSPEGYRLLDYWGQGTQVTVSS
- polyreactivity (PSR sort gate): low polyreactivity

Sequence: QVQLVESGGGLVQAGGSLRLTCAASGSTFVRYVMGWYRQAPGKERELVAAISRRGGSTYYADSVKGRFTISRDNANNTVYLQMNSLKPEDTAVYYCARTVGYRTLLESDSWGQGTQVTVSS
- polyreactivity (PSR sort gate): high polyreactivity

Sequence: QVQLVESGGGLVQAGGSLRLSCAASGLIFGRYAMGGYRQAPGKEREFVAAITWRVGTTYYADSVKGRFTISRDNAKITVYLQMNSLKPEDTAVYYCAARSRTGRYDYWGQGTQVTVSS
- polyreactivity (PSR sort gate): high polyreactivity

Sequence: QVQLVESGGGLVKAGGSLRLRCAASGITFRYNAMGWYRQAPGKERELVAAITSSGGRTYYADSVKGRFTISRDNAKNTVYLQMNSLKPEDTAVYYCAARTRYRKEYDYWGQGTQVTVSS
- polyreactivity (PSR sort gate): high polyreactivity

Sequence: QVQLVESRGGLVQARGSLRLSCAASGRTFYPYAMGWYSPAPGKERELVATITGSGTTTYYADSVKGRFTLSRDNGNNTVYLQMNRRKPEDTAVYYSAADVWEVVTPYGTIDDDYWRQGTQVTVSS
- polyreactivity (PSR sort gate): high polyreactivity

Sequence: QVQLVESGGGLVQAGGSLRLSCAASGSISVPYGMGWYRQAPGKERELVAAITGGSTNYADSVKGRFTISRDNAKNTVYLQMNSLKPEDTAVYYCAADVYWYYGAPELWYRYDYWGQGTQVTVSS
- polyreactivity (PSR sort gate): low polyreactivity

Sequence: QVQQQESGGGLVQAGGSLRLSCAASGTIFQLTVMGRYRQAPGKERQLVASIDYGGNTNYADSVKGRFTISRDNAKNTVYLQMNSLKPEDTAVYYCAASSDSWTTHPYWGQGTQVTVSS
- polyreactivity (PSR sort gate): low polyreactivity

Sequence: QVQLVESGGGLVQAGGSLRLSCAASGYTFVYNALGWYRQAPGKEREFVAAITWSGTSTRYADSVKGRFTISRDNAKNTVYIQMTSLQPEDTAVYYCAARRRSAQSGSYNHWGQGTQVTVSS
- polyreactivity (PSR sort gate): high polyreactivity

Sequence: QVQLVESGGGLVQAGGSLRLSCAASGRTFFSNAMGWYRQAPGKERELVAVIDSGGSTYYADSVKGRFTISRDNAKNTVYLQMNSLKPEDTAVYYCAADTGTAPSEDYLGQGTQVTVSS
- polyreactivity (PSR sort gate): low polyreactivity

Sequence: QVQLVESGGGLVQAGGSLRLSCAASGGTFRWNARGWYRQAPGKERELVAAITKSGGSTYYADSVKGRFTISRDIAKNTVYLQMNSLKPEDTAVYYCATDYLRRRDYWGQGTQVTVSS
- polyreactivity (PSR sort gate): high polyreactivity

Sequence: QDQLVESGGGLVQAGCSLRLTCAASGSTFTSNAMGWYRQAPGKERYLVASISGSVGRTYYADSVKGRFTISRDNAKNTVYLQMNSLKPEDTAVYYCNDESRNLYSTQFDYWGQGTQVTVSS
- polyreactivity (PSR sort gate): low polyreactivity

Sequence: QVQLVESGGGLVQAGGSLRLSCAASGRIFDCYAMGWYIQAPGKERELVAAIRASGGRTYYADSVKGRFTISRDNAKNTVYLQMNSLKPEDTAVYYCAADSVKYGGDYWGQGTQVTVSS
- polyreactivity (PSR sort gate): high polyreactivity

Source: the nanobody polyreactivity screen of Harvey et al. (2022)
